Assays:
4H2211-AA = biological target: T1, 4H2211-AA; assay: two-hybrid library CCmax;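 also: natural log of median RNA to DNA barcode read ratio; higher means stronger binding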
T1 chain: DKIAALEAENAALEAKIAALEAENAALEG

4H2238-AA = biological target: T2, 4H2238-AA; assay: two-hybrid library CCmax; details: mean of both orientations;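 also: natural log of median RNA to DNA barcode read ratio; higher means stronger binding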
T2 chain: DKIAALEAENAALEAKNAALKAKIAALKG

4H2513-AA = biological target: T3, 4H2513-AA; assay: two-hybrid library CCmax; details: mean of both orientations;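 also: natural log of median RNA to DNA barcode read ratio; higher means stronger binding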
T3 chain: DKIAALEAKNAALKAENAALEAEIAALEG

4H2536-AA = biological target: T4, 4H2536-AA; assay: two-hybrid library CCmax; details: mean of both orientations;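 also: natural log of median RNA to DNA barcode read ratio; higher means stronger binding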
T4 chain: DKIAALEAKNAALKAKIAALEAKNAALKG

4H2608-AA = biological target: T5, 4H2608-AA; assay: two-hybrid library CCmax; details: mean of both orientations;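 also: natural log of median RNA to DNA barcode read ratio; higher means stronger binding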
T5 chain: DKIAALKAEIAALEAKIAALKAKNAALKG

4H2614-AA = biological target: T6, 4H2614-AA; assay: two-hybrid library CCmax; details: mean of both orientations;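 also: natural log of median RNA to DNA barcode read ratio; higher means stronger binding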
T6 chain: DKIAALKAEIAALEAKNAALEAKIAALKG

4H2726-AA = biological target: T7, 4H2726-AA; assay: two-hybrid library CCmax; details: mean of both orientations
T7 chain: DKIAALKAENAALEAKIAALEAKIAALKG

4H2935-AA = biological target: T8, 4H2935-AA; assay: two-hybrid library CCmax; details: mean of both orientations
T8 chain: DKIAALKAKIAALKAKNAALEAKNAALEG

4H327-AA = biological target: T9, 4H327-AA; assay: two-hybrid library CCmax; details: mean of both orientations
T9 chain: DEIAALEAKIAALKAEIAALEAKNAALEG

4H3605-AA = biological target: T10, 4H3605-AA; assay: two-hybrid library CCmax; details: mean of both orientations
T10 chain: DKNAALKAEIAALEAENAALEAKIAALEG

4H3625-AA = biological target: T11, 4H3625-AA; assay: two-hybrid library CCmax; details: mean of both orientations
T11 chain: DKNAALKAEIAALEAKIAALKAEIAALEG

4H3664-AA = biological target: T12, 4H3664-AA; assay: two-hybrid library CCmax; details: mean of both orientations
T12 chain: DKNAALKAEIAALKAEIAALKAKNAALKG

4H369-AA = biological target: T13, 4H369-AA; assay: two-hybrid library CCmax; details: mean of both orientations
T13 chain: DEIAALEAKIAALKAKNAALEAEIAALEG

4H3922-AA = biological target: T14, 4H3922-AA; assay: two-hybrid library CCmax; details: mean of both orientations
T14 chain: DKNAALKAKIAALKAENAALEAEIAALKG

4H4033-AA = biological target: T15, 4H4033-AA; assay: two-hybrid library CCmax; details: mean of both orientations
T15 chain: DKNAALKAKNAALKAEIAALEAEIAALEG

4H481-AA = biological target: T16, 4H481-AA; assay: two-hybrid library CCmax; details: mean of both orientations
T16 chain: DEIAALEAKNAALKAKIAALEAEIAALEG

4H55-AA = biological target: T17, 4H55-AA; assay: two-hybrid library CCmax; details: mean of both orientations
T17 chain: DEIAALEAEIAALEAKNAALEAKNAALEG

4H662-AA = biological target: T18, 4H662-AA; assay: two-hybrid library CCmax; details: mean of both orientations
T18 chain: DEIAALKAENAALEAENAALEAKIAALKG

4H2610-bN = biological target: T19, 4H2610-bN; assay: two-hybrid library CCNG1
T19 chain: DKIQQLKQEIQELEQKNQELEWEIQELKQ

4H2667-bN = biological target: T20, 4H2667-bN; assay: two-hybrid library CCNG1
T20 chain: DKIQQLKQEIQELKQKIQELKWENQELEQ

4H2697-bN = biological target: T21, 4H2697-bN; assay: two-hybrid library CCNG1
T21 chain: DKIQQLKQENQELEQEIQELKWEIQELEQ

4H3189-bN = biological target: T22, 4H3189-bN; assay: two-hybrid library CCNG1
T22 chain: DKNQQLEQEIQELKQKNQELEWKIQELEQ

4H331-bN = biological target: T23, 4H331-bN; assay: two-hybrid library CCNG1
T23 chain: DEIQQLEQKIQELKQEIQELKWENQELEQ

4H3606-bN = biological target: T24, 4H3606-bN; assay: two-hybrid library CCNG1
T24 chain: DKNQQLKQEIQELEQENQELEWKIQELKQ

4H370-bN = biological target: T25, 4H370-bN; assay: two-hybrid library CCNG1
T25 chain: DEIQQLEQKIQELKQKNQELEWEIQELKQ

4H3782-bN = biological target: T26, 4H3782-bN; assay: two-hybrid library CCNG1
T26 chain: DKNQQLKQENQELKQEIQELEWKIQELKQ

4H3843-bN = biological target: T27, 4H3843-bN; assay: two-hybrid library CCNG1
T27 chain: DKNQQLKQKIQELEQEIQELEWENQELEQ

4H4001-bN = biological target: T28, 4H4001-bN; assay: two-hybrid library CCNG1
T28 chain: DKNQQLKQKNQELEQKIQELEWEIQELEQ

4H462-bN = biological target: T29, 4H462-bN; assay: two-hybrid library CCNG1
T29 chain: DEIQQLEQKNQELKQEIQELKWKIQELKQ

4H568-bN = biological target: T30, 4H568-bN; assay: two-hybrid library CCNG1
T30 chain: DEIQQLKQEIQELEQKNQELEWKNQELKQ

4H607-bN = biological target: T31, 4H607-bN; assay: two-hybrid library CCNG1
T31 chain: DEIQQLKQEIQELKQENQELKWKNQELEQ

4H687-bN = biological target: T32, 4H687-bN; assay: two-hybrid library CCNG1
T32 chain: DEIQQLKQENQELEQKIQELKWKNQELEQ

4H72-bN = biological target: T33, 4H72-bN; assay: two-hybrid library CCNG1
T33 chain: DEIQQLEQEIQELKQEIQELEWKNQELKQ

4H797-bN = biological target: T34, 4H797-bN; assay: two-hybrid library CCNG1
T34 chain: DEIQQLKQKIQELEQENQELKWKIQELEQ

4H883-bA = biological target: T35, 4H883-bA; assay: two-hybrid library CCNG1
T35 chain: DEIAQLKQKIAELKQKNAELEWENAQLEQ

4H883-bN = biological target: T36, 4H883-bN; assay: two-hybrid library CCNG1
T36 chain: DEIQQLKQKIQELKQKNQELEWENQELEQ

4H918-bN = biological target: T37, 4H918-bN; assay: two-hybrid library CCNG1
T37 chain: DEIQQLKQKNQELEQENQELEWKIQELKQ

4H953-bN = biological target: T38, 4H953-bN; assay: two-hybrid library CCNG1
T38 chain: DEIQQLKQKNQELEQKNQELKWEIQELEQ

4H967-bN = biological target: T39, 4H967-bN; assay: two-hybrid library CCNG1
T39 chain: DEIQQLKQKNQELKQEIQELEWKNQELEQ

## DKIAALEAENAALEAKIAALEAENAALEG [4H2211-AA]
4H2211-AA
  interaction score: -0.565
4H2238-AA
  interaction score: -1.07
4H2513-AA
  interaction score: -1.48
4H2536-AA
  interaction score: 1.92
4H2608-AA
  interaction score: -0.966
4H2614-AA
  interaction score: -1.44
4H2726-AA
  interaction score: 0.569
4H2935-AA
  interaction score: -1.25
4H327-AA
  interaction score: -1.1
4H3605-AA
  interaction score: -1.6
4H3625-AA
  interaction score: -1.16
4H3664-AA
  interaction score: -1.82
4H369-AA
  interaction score: -1.37
4H3922-AA
  interaction score: -1.15
4H4033-AA
  interaction score: -1.42
4H481-AA
  interaction score: 1.2
4H55-AA
  interaction score: -1.44
4H662-AA
  interaction score: -1.54

## DKIQQLKQEIQELEQKNQELEWEIQELKQ [4H2610-bN]
4H2610-bN
  interaction score: 0.245
4H2667-bN
  interaction score: 0.011
4H2697-bN
  interaction score: -0.363
4H3189-bN
  interaction score: -0.821
4H331-bN
  interaction score: 0.616
4H3606-bN
  interaction score: -1.38
4H370-bN
  interaction score: -2.72
4H3782-bN
  interaction score: -1.11
4H3843-bN
  interaction score: 0.0276
4H4001-bN
  interaction score: -0.736
4H462-bN
  interaction score: 1.63
4H568-bN
  interaction score: -0.762
4H607-bN
  interaction score: -0.966
4H687-bN
  interaction score: -1.82
4H72-bN
  interaction score: -1.85
4H797-bN
  interaction score: -1.16
4H883-bA
  interaction score: 0.288
4H883-bN
  interaction score: -0.137
4H918-bN
  interaction score: -0.666
4H953-bN
  interaction score: -0.363
4H967-bN
  interaction score: -0.795
